According to US20050009743A1:

What was measured:
[1] = biological target: HIV-1 CA-NC (wild-type) (HIV-1 NL4-3); assay: self-assembly of 9 µM protein with 1 µM d(TG)50, overnight at 4 °C, 500 mM NaCl, 50 mM Tris-HCl pH 8.0; light scattering at 312 nm (the filing puts the higher signal down to aggregation)
[2] = biological target: CA-NC(G94D) with the CA A42D mutation (plasmid WISP01125) (HIV-1 NL4-3); assay: self-assembly of 9 µM mutant protein with 1 µM d(TG)50, overnight at 4 °C, 500 mM NaCl, 50 mM Tris-HCl pH 8.0; light scattering at 312 nm
[3] = biological target: HIV-1 CA-NC(G94D) protein (HIV-1 NL4-3 Gag amino acids 133-433 with the point mutation G94D; plasmid WISP9868) (HIV-1 NL4-3); assay: self-assembly of 9 µM CA-NC(G94D) with 1 µM d(TG)50, 16 h at 4 °C, 500 mM NaCl, 50 mM Tris-HCl; light scattering at 312 nm
[4] = biological target: HIV-1 CA-NC(G94D) protein (HIV-1 NL4-3 Gag amino acids 133-433 with the point mutation G94D; plasmid WISP9868) (HIV-1 NL4-3); assay: self-assembly of 9 µM protein with 1 µM d(TG)50, overnight at 4 °C, 500 mM NaCl, 50 mM Tris-HCl pH 8.0; light scattering at 312 nm
[5] = biological target: HIV-1 CA-NC(G94D) protein (HIV-1 NL4-3 Gag amino acids 133-433 with the point mutation G94D; plasmid WISP9868) (HIV-1 NL4-3); assay: self-assembly of 9 µM CA-NC(G94D) with 0.03 mg/ml d(TG)25, overnight at 4 °C, 500 mM NaCl, 50 mM Tris-HCl pH 8.0; light scattering at 312 nm
[6] = biological target: HIV-1 CA-NC(G94D) protein (HIV-1 NL4-3 Gag amino acids 133-433 with the point mutation G94D; plasmid WISP9868) (HIV-1 NL4-3); assay: self-assembly of 9 µM CA-NC(G94D) with 0.03 mg/ml d(TG)38, overnight at 4 °C, 500 mM NaCl, 50 mM Tris-HCl pH 8.0; light scattering at 312 nm
[7] = biological target: HIV-1 CA-NC(G94D) protein (HIV-1 NL4-3 Gag amino acids 133-433 with the point mutation G94D; plasmid WISP9868) (HIV-1 NL4-3); assay: self-assembly of 9 µM CA-NC(G94D) with 0.03 mg/ml d(TG)50, overnight at 4 °C, 500 mM NaCl, 50 mM Tris-HCl pH 8.0; light scattering at 312 nm
[8] = biological target: HIV-1 CA-NC(G94D) protein (HIV-1 NL4-3 Gag amino acids 133-433 with the point mutation G94D; plasmid WISP9868) (HIV-1 NL4-3); assay: self-assembly of 9 µM CA-NC(G94D) with 0.03 mg/ml random 100-base oligonucleotide d(N)100, overnight at 4 °C, 500 mM NaCl, 50 mM Tris-HCl pH 8.0; light scattering at 312 nm (only slightly above background)
[9] = biological target: CA-NC(G94D) with the CA W184A/M185A mutations (plasmid WISP01127) (HIV-1 NL4-3); assay: self-assembly of 9 µM mutant protein with 1 µM d(TG)50, overnight at 4 °C, 500 mM NaCl, 50 mM Tris-HCl pH 8.0; light scattering at 312 nm
[10] = biological target: (CA-CTD)2, two copies of the HIV-1 CA C-terminal dimerization domain in tandem (plasmid WISP0070) (HIV-1 NL4-3); assay: Superdex 75 gel filtration, 4 mg/ml loaded, 25 mM phosphate pH 7.2, 150 mM NaCl; self-association
[11] = biological target: (CA-CTD)2, two copies of the HIV-1 CA C-terminal dimerization domain in tandem (plasmid WISP0070) (HIV-1 NL4-3); assay: equilibrium sedimentation (analytical ultracentrifugation), 22,000 rpm, 4 °C, 25 mM phosphate pH 7.0, 100 mM NaCl, 2 mM DTT; self-association

HIV-1 CA-NC (wild-type) showed an Abs312 (light scattering of cylinder formation) [1] of 0.735.

In the case of “CA-NC(G94D) with the CA A42D mutation (plasmid WISP01125)”, the Abs312 (light scattering of cylinder formation) [2] is reported as 0.025.

“HIV-1 CA-NC(G94D) protein (HIV-1 NL4-3 Gag amino acids 133-433 with the point mutation G94D; plasmid WISP9868)” was tested, and the Abs312 (light scattering of cylinder formation) [3] was 0.3 to 0.4, the Abs312 (light scattering of cylinder formation) [4] was 0.292 and the Abs312 (light scattering of cylinder formation) [5] was 0.2. The Abs312 (light scattering of cylinder formation) [6] was 0.279, the Abs312 (light scattering of cylinder formation) [7] was 0.292 and the Abs312 (light scattering of cylinder formation) [8] was 0.035.

With “CA-NC(G94D) with the CA W184A/M185A mutations (plasmid WISP01127)” the Abs312 (light scattering of cylinder formation) [9] was 0.008.

“(CA-CTD)2, two copies of the HIV-1 CA C-terminal dimerization domain in tandem (plasmid WISP0070)” showed an apparent mass (gel filtration, oligomerization state) [10] of 59 kDa and a Kd [11] of under 1000 nM.
